According to the supplement of paper PMC9112550, “Optimization of the antimicrobial peptide Bac7 by deep mutational scanning” (BMC Biology, 2022):

System: Escherichia coli TOP10
Assay: shrunken log2 fold change of peptide-encoding DNA abundance (4.5 h post-induction vs induction); higher = less antimicrobial activity (less host growth inhibition)
Details: time post-induction: 4.5 h; library: site-saturation at positions 5, 18, 19, 20
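Also: peptides expressed intracellularly from a pBAD plasmid library in pooled LB shake-flask culture, induced with 0.3% L-arabinose, DNA abundance read by NGS, three biological replicates, DESeq2 with apeglm shrinkage.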

| Sequence | shrunken log2 fold change |
| --- | --- |
| RRIRIRPPRLPRPRPRPHFYPRP | -0.407 |
| RRIRIRPPRLPRPRPRPHGIPRP | -0.0115 |
| RRIRIRPPRLPRPRPRPHGKPRP | -0.326 |
| RRIRIRPPRLPRPRPRPHHLPRP | -0.221 |
| RRIRIRPPRLPRPRPRPHHRPRP | -0.46 |
| RRIRIRPPRLPRPRPRPHLGPRP | 0.0798 |
| RRIRIRPPRLPRPRPRPHLIPRP | -0.245 |
| RRIRIRPPRLPRPRPRPHMEPRP | -0.332 |
| RRIRIRPPRLPRPRPRPHQVPRP | -0.614 |
| RRIRIRPPRLPRPRPRPHRHPRP | -0.364 |
| RRIRIRPPRLPRPRPRPHSDPRP | -0.439 |
| RRIRIRPPRLPRPRPRPHSPPRP | -0.161 |
| RRIRIRPPRLPRPRPRPHSQPRP | -0.824 |
| RRIRIRPPRLPRPRPRPHTHPRP | -0.92 |
| RRIRIRPPRLPRPRPRPHTIPRP | -0.572 |
| RRIRIRPPRLPRPRPRPHTKPRP | -1.68 |
| RRIRIRPPRLPRPRPRPHVDPRP | -0.294 |
| RRIRIRPPRLPRPRPRPHVYPRP | -0.112 |
| RRIRIRPPRLPRPRPRPHYAPRP | -0.121 |
| RRIRIRPPRLPRPRPRPHYQPRP | -0.463 |
| RRIRIRPPRLPRPRPRPICAPRP | 0.0269 |
| RRIRIRPPRLPRPRPRPICLPRP | -0.197 |
| RRIRIRPPRLPRPRPRPICSPRP | -0.118 |
| RRIRIRPPRLPRPRPRPIEHPRP | 0.00487 |
| RRIRIRPPRLPRPRPRPIEMPRP | -0.00843 |

| Sequence | shrunken log2 fold change |
| --- | --- |
| RRIRIRPPRLPRPRPRPIFFPRP | -0.123 |
| RRIRIRPPRLPRPRPRPIFGPRP | -0.164 |
| RRIRIRPPRLPRPRPRPIFIPRP | -0.317 |
| RRIRIRPPRLPRPRPRPIGAPRP | -0.0926 |
| RRIRIRPPRLPRPRPRPIGDPRP | -0.0264 |
| RRIRIRPPRLPRPRPRPIHLPRP | -0.352 |
| RRIRIRPPRLPRPRPRPIISPRP | -0.101 |
| RRIRIRPPRLPRPRPRPINIPRP | -1.41 |
| RRIRIRPPRLPRPRPRPINLPRP | -0.146 |
| RRIRIRPPRLPRPRPRPINMPRP | -0.956 |
| RRIRIRPPRLPRPRPRPIPMPRP | -0.705 |
| RRIRIRPPRLPRPRPRPIPYPRP | -0.295 |
| RRIRIRPPRLPRPRPRPIRMPRP | -0.346 |
| RRIRIRPPRLPRPRPRPIRSPRP | -0.273 |
| RRIRIRPPRLPRPRPRPIRTPRP | -0.288 |
| RRIRIRPPRLPRPRPRPITMPRP | -1.08 |
| RRIRIRPPRLPRPRPRPITSPRP | -1.46 |
| RRIRIRPPRLPRPRPRPITVPRP | -0.426 |
| RRIRIRPPRLPRPRPRPITYPRP | -0.323 |
| RRIRIRPPRLPRPRPRPIVCPRP | 0.000993 |
| RRIRIRPPRLPRPRPRPIVSPRP | -0.102 |
| RRIRIRPPRLPRPRPRPIWSPRP | 0.025 |
| RRIRIRPPRLPRPRPRPIYEPRP | -0.107 |
| RRIRIRPPRLPRPRPRPIYLPRP | -0.811 |
| RRIRIRPPRLPRPRPRPIYYPRP | -0.539 |

| Sequence | shrunken log2 fold change |
| --- | --- |
| RRIRIRPPRLPRPRPRPKCYPRP | -0.00654 |
| RRIRIRPPRLPRPRPRPKEDPRP | -0.327 |
| RRIRIRPPRLPRPRPRPKEFPRP | -0.361 |
| RRIRIRPPRLPRPRPRPKETPRP | -0.0675 |
| RRIRIRPPRLPRPRPRPKEYPRP | -0.728 |
| RRIRIRPPRLPRPRPRPKFWPRP | -0.0477 |
| RRIRIRPPRLPRPRPRPKGPPRP | -0.14 |
| RRIRIRPPRLPRPRPRPKIHPRP | -0.464 |
| RRIRIRPPRLPRPRPRPKISPRP | -0.3 |
| RRIRIRPPRLPRPRPRPKKFPRP | -0.666 |
| RRIRIRPPRLPRPRPRPKKMPRP | 0.222 |
| RRIRIRPPRLPRPRPRPKKQPRP | -0.194 |
| RRIRIRPPRLPRPRPRPKLPPRP | 0.0199 |
| RRIRIRPPRLPRPRPRPKLQPRP | 0.173 |
| RRIRIRPPRLPRPRPRPKLRPRP | 0.349 |
| RRIRIRPPRLPRPRPRPKNWPRP | -0.035 |
| RRIRIRPPRLPRPRPRPKPLPRP | -0.191 |
| RRIRIRPPRLPRPRPRPKQFPRP | -0.328 |
| RRIRIRPPRLPRPRPRPKRGPRP | 0.2 |
| RRIRIRPPRLPRPRPRPKSAPRP | -0.0724 |
| RRIRIRPPRLPRPRPRPKSHPRP | -0.451 |
| RRIRIRPPRLPRPRPRPKTEPRP | -0.413 |
| RRIRIRPPRLPRPRPRPKVNPRP | -0.647 |
| RRIRIRPPRLPRPRPRPKVSPRP | 0.0423 |
| RRIRIRPPRLPRPRPRPKWYPRP | -0.22 |
